In one data set the target is Ago2 A481T (Homo sapiens, UniProt Q9UKV8 1-859, A481T). In words: filter binding; guide-loaded Ago2; target Kd; Filter binding: 30 mM Tris pH 8.0, 0.1 M K acetate, 2 mM Mg acetate, 0.5 mM TCEP, 0.005% NP-40, 0.01 mg/ml yeast tRNA, room temp, 45 min, 0.1 nM target; smFRET: 50 mM Tris pH 8.0, 50 mM NaCl, 60 mM KCl (RISC assembly buffer), 23 C. As to conditions: protein: recombinant; tags: His6; guide g2-g9 pairs target nt 1-8; 3' overhangs; t1 = target nt 9.

The target of a further data set is Ago2 wild type (Homo sapiens, UniProt Q9UKV8 1-859). Described as above. The following applies: protein: recombinant; tags: His6; guide g2-g9 pairs target nt 1-8; 3' overhangs; t1 = target nt 9.
Chain of Ago2 wild type (Q9UKV8 whole entry): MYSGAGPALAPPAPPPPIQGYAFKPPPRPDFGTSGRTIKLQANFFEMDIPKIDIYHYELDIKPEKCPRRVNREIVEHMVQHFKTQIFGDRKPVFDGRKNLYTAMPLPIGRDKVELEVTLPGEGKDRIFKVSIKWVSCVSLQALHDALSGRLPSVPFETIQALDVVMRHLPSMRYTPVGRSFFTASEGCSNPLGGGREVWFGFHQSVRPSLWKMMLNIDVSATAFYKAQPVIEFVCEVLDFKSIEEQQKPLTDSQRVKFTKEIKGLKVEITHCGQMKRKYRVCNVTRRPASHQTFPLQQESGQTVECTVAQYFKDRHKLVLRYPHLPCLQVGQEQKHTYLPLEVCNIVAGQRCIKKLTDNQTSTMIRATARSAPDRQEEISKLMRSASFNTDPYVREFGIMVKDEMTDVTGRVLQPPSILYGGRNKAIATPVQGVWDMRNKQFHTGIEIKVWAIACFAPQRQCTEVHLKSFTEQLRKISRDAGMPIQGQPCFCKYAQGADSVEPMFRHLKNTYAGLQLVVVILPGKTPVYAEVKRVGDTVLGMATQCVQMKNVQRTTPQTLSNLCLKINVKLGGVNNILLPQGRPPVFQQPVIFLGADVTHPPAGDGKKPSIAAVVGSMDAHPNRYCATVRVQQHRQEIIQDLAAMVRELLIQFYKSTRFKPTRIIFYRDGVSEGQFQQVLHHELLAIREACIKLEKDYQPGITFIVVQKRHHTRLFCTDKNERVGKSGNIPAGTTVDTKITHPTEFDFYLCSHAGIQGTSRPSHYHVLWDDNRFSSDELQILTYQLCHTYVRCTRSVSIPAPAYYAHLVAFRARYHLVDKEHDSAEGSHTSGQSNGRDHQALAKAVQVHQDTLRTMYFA

Chain of Ago2 A481T (Q9UKV8 whole entry A481T): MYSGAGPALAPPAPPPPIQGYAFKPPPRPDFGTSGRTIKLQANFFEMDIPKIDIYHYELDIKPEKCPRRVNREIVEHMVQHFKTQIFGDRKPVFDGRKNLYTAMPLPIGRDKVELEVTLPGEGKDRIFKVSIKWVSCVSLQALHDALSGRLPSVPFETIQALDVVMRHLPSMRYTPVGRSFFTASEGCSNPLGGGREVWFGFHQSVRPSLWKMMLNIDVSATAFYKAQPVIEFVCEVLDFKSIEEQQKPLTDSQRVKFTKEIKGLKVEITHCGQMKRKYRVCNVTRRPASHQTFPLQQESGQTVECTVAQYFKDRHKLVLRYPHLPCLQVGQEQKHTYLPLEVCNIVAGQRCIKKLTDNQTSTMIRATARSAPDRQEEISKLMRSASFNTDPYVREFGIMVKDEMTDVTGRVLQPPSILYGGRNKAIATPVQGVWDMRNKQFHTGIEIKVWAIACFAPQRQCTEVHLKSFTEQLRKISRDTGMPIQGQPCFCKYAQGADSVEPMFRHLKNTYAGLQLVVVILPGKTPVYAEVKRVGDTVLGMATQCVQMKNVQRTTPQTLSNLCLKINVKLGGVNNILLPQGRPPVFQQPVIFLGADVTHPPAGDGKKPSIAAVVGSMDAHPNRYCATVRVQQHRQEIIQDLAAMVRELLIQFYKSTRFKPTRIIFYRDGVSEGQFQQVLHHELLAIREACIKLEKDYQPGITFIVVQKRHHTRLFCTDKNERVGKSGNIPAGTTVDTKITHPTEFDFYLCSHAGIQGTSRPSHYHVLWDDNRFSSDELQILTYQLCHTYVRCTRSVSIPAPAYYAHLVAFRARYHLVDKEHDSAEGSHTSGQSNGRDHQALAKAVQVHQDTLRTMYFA

B1: guide + t1A target (dsRNA)
RNA 1: UUCACAUUGCCCAAGUCUCUU
RNA 2: CAAUGUGAAAA
modifications: 5'-phosphate on guide
Regarding B1, the Kd with Ago2 A481T was 1.5 ± 0.13 nM; with Ago2 wild type, 0.75 ± 0.04 nM.

B2: guide + t1C target (dsRNA)
RNA 1: UUCACAUUGCCCAAGUCUCUU
RNA 2: CAAUGUGACAA
modifications: 5'-phosphate on guide
With B2, the Kd in the data set with Ago2 wild type turned out to be 1.8 ± 0.12 nM.

B3: guide + t1U target (dsRNA)
RNA 1: UUCACAUUGCCCAAGUCUCUU
RNA 2: CAAUGUGAUAA
modifications: 5'-phosphate on guide
B3: in the data set with Ago2 wild type, the Kd amounted to 1.9 ± 0.1 nM.

B4: guide + t1DAP target (dsRNA)
RNA 1: UUCACAUUGCCCAAGUCUCUU
RNA 2: CAAUGUGAAAA
modifications: 5'-phosphate on guide; target nt 9 = 2,6-diaminopurine (written A)
For the molecule B4, in the data set with Ago2 wild type, the Kd stood at 0.45 ± 0.03 nM.

B5: guide + t1G target (dsRNA)
RNA 1: UUCACAUUGCCCAAGUCUCUU
RNA 2: CAAUGUGAGAA
modifications: 5'-phosphate on guide
Regarding B5, the Kd with Ago2 A481T was determined as 1.8 ± 0.11 nM; with Ago2 wild type it was 1.9 ± 0.09 nM.

B6: guide + t1m6A target (dsRNA)
RNA 1: UUCACAUUGCCCAAGUCUCUU
RNA 2: CAAUGUGAAAA
modifications: 5'-phosphate on guide; target nt 9 = N6-methyladenosine (written A)
Take B6: the Kd with Ago2 wild type turned out to be 1.8 ± 0.12 nM.

As a reminder, the Kd is the concentration at which binding is half-saturated.
